Measurements as given in patent US20140087995A1 (published 2014).
Numbered stars: 1 amine (or outer) side, 2 acyl side, 3 side chain; on linkers, the order of the positions; unused ones are H or OH. Bridge positions count the residues as written; N and C are the ends. Side chains are listed from the residue outwards. Ends that are not written are not given here. * marks the point of attachment. C20 diacid = O=C(O)CCCCCCCCCCCCCCCCCCC(=O)*; γGlu = O=C(O)[C@H](CCC(=O)[*:2])N[*:1]; AEEA = NCCOCCOCC(=O)O

T1: human calcitonin receptor (human, UniProt P30988 25-474)
T1 construct: whole, on cells; also called hCTR; hCT
T1 sequence (looked up): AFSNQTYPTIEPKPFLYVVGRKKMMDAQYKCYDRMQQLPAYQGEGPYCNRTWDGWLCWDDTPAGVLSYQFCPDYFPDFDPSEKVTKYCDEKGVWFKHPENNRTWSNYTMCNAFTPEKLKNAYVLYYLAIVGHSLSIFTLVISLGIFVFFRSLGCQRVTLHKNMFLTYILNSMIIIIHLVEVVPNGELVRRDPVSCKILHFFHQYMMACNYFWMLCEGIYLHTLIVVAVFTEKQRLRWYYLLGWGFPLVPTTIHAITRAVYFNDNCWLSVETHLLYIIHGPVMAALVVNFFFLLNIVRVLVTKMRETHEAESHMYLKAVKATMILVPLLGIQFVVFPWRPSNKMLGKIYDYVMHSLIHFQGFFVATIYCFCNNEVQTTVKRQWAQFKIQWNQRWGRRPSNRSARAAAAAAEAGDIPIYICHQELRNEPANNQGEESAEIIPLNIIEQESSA

B1: N^ε1-[2-[2-[2-[[(4S)-4-carboxy-4-(19-carboxynonadecanoylamino)butanoyl]amino]ethoxy]ethoxy]acetyl]-[Arg17,Pro21,Pro27,His34]-h-amylin (peptide)
peptide: K([AEEA-γGlu-C20 diacid])CNTATCATQRLANFLRHSSPNFGAIPSSTNVGHNTY-NH2
modifications: disulfide 2-7; N-terminus assumed
SMILES: CC[C@H](C)[C@H](NC(=O)[C@H](C)NC(=O)CNC(=O)[C@H](Cc1ccccc1)NC(=O)[C@H](CC(N)=O)NC(=O)[C@@H]1CCCN1C(=O)[C@H](CO)NC(=O)[C@H](CO)NC(=O)[C@H](Cc1c[nH]cn1)NC(=O)[C@H](CCCNC(=N)N)NC(=O)[C@H](CC(C)C)NC(=O)[C@H](Cc1ccccc1)NC(=O)[C@H](CC(N)=O)NC(=O)[C@H](C)NC(=O)[C@H](CC(C)C)NC(=O)[C@H](CCCNC(=N)N)NC(=O)[C@H](CCC(N)=O)NC(=O)[C@@H](NC(=O)[C@H](C)NC(=O)[C@@H]1CSSC[C@H](NC(=O)[C@@H](N)CCCCNC(=O)COCCOCCNC(=O)CC[C@H](NC(=O)CCCCCCCCCCCCCCCCCCC(=O)O)C(=O)O)C(=O)N[C@@H](CC(N)=O)C(=O)N[C@@H]([C@@H](C)O)C(=O)N[C@@H](C)C(=O)N[C@@H]([C@@H](C)O)C(=O)N1)[C@@H](C)O)C(=O)N1CCC[C@H]1C(=O)N[C@@H](CO)C(=O)N[C@@H](CO)C(=O)N[C@H](C(=O)N[C@@H](CC(N)=O)C(=O)N[C@H](C(=O)NCC(=O)N[C@@H](Cc1c[nH]cn1)C(=O)N[C@@H](CC(N)=O)C(=O)N[C@H](C(=O)N[C@@H](Cc1ccc(O)cc1)C(N)=O)[C@@H](C)O)C(C)C)[C@@H](C)O
notes: also called compound 76
B2: N^ε1-[2-[2-[2-(19-carboxynonadecanoylamino)ethoxy]ethoxy]acetyl]-[His14,Arg17,Pro21,Pro27]-h-amylin (peptide)
peptide: K([AEEA-C20 diacid])CNTATCATQRLAHFLRHSSPNFGAIPSSTNVGSNTY-NH2
modifications: disulfide 2-7; N-terminus assumed
SMILES: CC[C@H](C)[C@H](NC(=O)[C@H](C)NC(=O)CNC(=O)[C@H](Cc1ccccc1)NC(=O)[C@H](CC(N)=O)NC(=O)[C@@H]1CCCN1C(=O)[C@H](CO)NC(=O)[C@H](CO)NC(=O)[C@H](Cc1c[nH]cn1)NC(=O)[C@H](CCCNC(=N)N)NC(=O)[C@H](CC(C)C)NC(=O)[C@H](Cc1ccccc1)NC(=O)[C@H](Cc1c[nH]cn1)NC(=O)[C@H](C)NC(=O)[C@H](CC(C)C)NC(=O)[C@H](CCCNC(=N)N)NC(=O)[C@H](CCC(N)=O)NC(=O)[C@@H](NC(=O)[C@H](C)NC(=O)[C@@H]1CSSC[C@H](NC(=O)[C@@H](N)CCCCNC(=O)COCCOCCNC(=O)CCCCCCCCCCCCCCCCCCC(=O)O)C(=O)N[C@@H](CC(N)=O)C(=O)N[C@@H]([C@@H](C)O)C(=O)N[C@@H](C)C(=O)N[C@@H]([C@@H](C)O)C(=O)N1)[C@@H](C)O)C(=O)N1CCC[C@H]1C(=O)N[C@@H](CO)C(=O)N[C@@H](CO)C(=O)N[C@H](C(=O)N[C@@H](CC(N)=O)C(=O)N[C@H](C(=O)NCC(=O)N[C@@H](CO)C(=O)N[C@@H](CC(N)=O)C(=O)N[C@H](C(=O)N[C@@H](Cc1ccc(O)cc1)C(N)=O)[C@@H](C)O)C(C)C)[C@@H](C)O
notes: also called compound 90
B3: N^ε1-[2-[2-[2-[[2-[2-[2-[[(4S)-4-carboxy-4-(19-carboxynonadecanoylamino)butanoyl]amino]ethoxy]ethoxy]acetyl]amino]ethoxy]ethoxy]acetyl]-[Arg17,Pro21,Pro27,Pro31 … (peptide)
peptide: K([AEEA-AEEA-γGlu-C20 diacid])CNTATCATQRLANFLRHSSPNFGAIPSSTPVGSNTY-NH2
modifications: disulfide 2-7; N-terminus assumed
SMILES: CC[C@H](C)[C@H](NC(=O)[C@H](C)NC(=O)CNC(=O)[C@H](Cc1ccccc1)NC(=O)[C@H](CC(N)=O)NC(=O)[C@@H]1CCCN1C(=O)[C@H](CO)NC(=O)[C@H](CO)NC(=O)[C@H](Cc1c[nH]cn1)NC(=O)[C@H](CCCNC(=N)N)NC(=O)[C@H](CC(C)C)NC(=O)[C@H](Cc1ccccc1)NC(=O)[C@H](CC(N)=O)NC(=O)[C@H](C)NC(=O)[C@H](CC(C)C)NC(=O)[C@H](CCCNC(=N)N)NC(=O)[C@H](CCC(N)=O)NC(=O)[C@@H](NC(=O)[C@H](C)NC(=O)[C@@H]1CSSC[C@H](NC(=O)[C@@H](N)CCCCNC(=O)COCCOCCNC(=O)COCCOCCNC(=O)CC[C@H](NC(=O)CCCCCCCCCCCCCCCCCCC(=O)O)C(=O)O)C(=O)N[C@@H](CC(N)=O)C(=O)N[C@@H]([C@@H](C)O)C(=O)N[C@@H](C)C(=O)N[C@@H]([C@@H](C)O)C(=O)N1)[C@@H](C)O)C(=O)N1CCC[C@H]1C(=O)N[C@@H](CO)C(=O)N[C@@H](CO)C(=O)N[C@H](C(=O)N1CCC[C@H]1C(=O)N[C@H](C(=O)NCC(=O)N[C@@H](CO)C(=O)N[C@@H](CC(N)=O)C(=O)N[C@H](C(=O)N[C@@H](Cc1ccc(O)cc1)C(N)=O)[C@@H](C)O)C(C)C)[C@@H](C)O
notes: also called compound 96
B4: N^ε1-[2-[2-[2-[[2-[2-[2-[[(4S)-4-carboxy-4-(19-carboxynonadecanoylamino)butanoyl]amino]ethoxy]ethoxy]acetyl]amino]ethoxy]ethoxy]acetyl]-[Arg17,Pro21,Pro27,Arg34 … (peptide)
peptide: K([AEEA-AEEA-γGlu-C20 diacid])CNTATCATQRLANFLRHSSPNFGAIPSSTNVGRNTY-NH2
modifications: disulfide 2-7; N-terminus assumed
SMILES: CC[C@H](C)[C@H](NC(=O)[C@H](C)NC(=O)CNC(=O)[C@H](Cc1ccccc1)NC(=O)[C@H](CC(N)=O)NC(=O)[C@@H]1CCCN1C(=O)[C@H](CO)NC(=O)[C@H](CO)NC(=O)[C@H](Cc1c[nH]cn1)NC(=O)[C@H](CCCNC(=N)N)NC(=O)[C@H](CC(C)C)NC(=O)[C@H](Cc1ccccc1)NC(=O)[C@H](CC(N)=O)NC(=O)[C@H](C)NC(=O)[C@H](CC(C)C)NC(=O)[C@H](CCCNC(=N)N)NC(=O)[C@H](CCC(N)=O)NC(=O)[C@@H](NC(=O)[C@H](C)NC(=O)[C@@H]1CSSC[C@H](NC(=O)[C@@H](N)CCCCNC(=O)COCCOCCNC(=O)COCCOCCNC(=O)CC[C@H](NC(=O)CCCCCCCCCCCCCCCCCCC(=O)O)C(=O)O)C(=O)N[C@@H](CC(N)=O)C(=O)N[C@@H]([C@@H](C)O)C(=O)N[C@@H](C)C(=O)N[C@@H]([C@@H](C)O)C(=O)N1)[C@@H](C)O)C(=O)N1CCC[C@H]1C(=O)N[C@@H](CO)C(=O)N[C@@H](CO)C(=O)N[C@H](C(=O)N[C@@H](CC(N)=O)C(=O)N[C@H](C(=O)NCC(=O)N[C@@H](CCCNC(=N)N)C(=O)N[C@@H](CC(N)=O)C(=O)N[C@H](C(=O)N[C@@H](Cc1ccc(O)cc1)C(N)=O)[C@@H](C)O)C(C)C)[C@@H](C)O
notes: also called compound 95

Columns and labels:
[1] = target: T1, human calcitonin receptor; test: SPA radioligand competition (125I-calcitonin), membranes of BHK cells with human calcitonin receptor
Description: Membranes were prepared in the following way; the cells were rinsed with PBS and incubated with Versene for approximately 5 min before harvesting. The cells were flushed with PBS and the cell-suspension was centrifuged for 5 min at 1000 rpm. Cells were homogenized (Ultrathurrax) in a buffer containing 20 mM Na-HEPES and 10 mM EDTA (pH 7.4) and centrifuged at 20.000 rpm for 15 min. The resulting pellet was resuspended, homogenized and centrifuged (20.000 rpm, 15 min) in a buffer containing 20 mM Na-HEPES and 0.1 mM EDTA (pH 7.4, buffer 2). The resulting pellet was resuspended in buffer 2 and protein concentration was measured (BCA protein Assay, Pierce). The homogenate was kept cold during the whole procedure. The membranes were kept at −80° C. until use. Assay was performed in a 384 well Optiplate (PerkinElmer) in a total volume of 40 ul. Membranes were mixed with SPA beads. Final concentration of membranes 35 ng/μL final and Final concentration of SPA beads was 0.05 mg/well. Test-compounds were dissolved in DMSO and further diluted in assay buffer (50 mM Hepes, pH 7.4, 1 mM CaCl2, 5 mM MgCl₂, 0.1% OA and 0.02% Tween20). […] The final mixture was incubated for 120 min with shaking at 400 rpm at 25° C. prior to centrifugation (1500 rpm, 10 min). Samples were analyzed on TopCounter™ (Packard). The […] was calculated using (one site binding competition analysis) GraphPad Prism5 as a measure of receptor affinity.

[2] = target: T1, human calcitonin receptor; test: ratio of IC50 at human calcitonin receptor to IC50 at human amylin receptor (SPA competition assays)
Description: The resulting pellet was resuspended, homogenized and centrifuged (20.000 rpm, 15 min) in a buffer containing 20 mM Na-HEPES and 0.1 mM EDTA (pH 7.4, buffer 2). The resulting pellet was resuspended in buffer 2 and protein concentration was measured (BCA protein Assay, Pierce). The homogenate was kept cold during the whole procedure. The membranes were kept at −80° C. until use. The assay was performed in a 384 well Optiplate (PerkinElmer) in a total volume of 40 ul. Membranes were mixed with SPA beads. Final concentration of membranes 35 ng/μL final and SPA beads was 0.05 mg/well. Test-compounds were dissolved in DMSO and further diluted in assay buffer (50 mM Hepes, pH 7.4, 1 mM CaCl2, 5 mM MgCl₂, 0.1% OA and 0.02% Tween20). […] The final mixture was incubated with shaking at 400 rpm for 120 min at 25° C. prior to centrifugation (1500 rpm, 10 min). Samples were analyzed on TopCounter™ (Packard). The IC₅₀ was calculated using (one site binding competition analysis) GraphPad Prism5 as a measure of receptor affinity.
Membranes were prepared in the following way; the cells were rinsed with PBS and incubated with Versene for approximately 5 min before harvesting. The cells were flushed with PBS and the cell-suspension was centrifuged for 5 min at 1000 rpm. Cells were homogenized (Ultrathurrax) in a buffer containing 20 mM Na-HEPES and 10 mM EDTA (pH 7.4) and centrifuged at 20.000 rpm for 15 min. The resulting pellet was resuspended, homogenized and centrifuged (20.000 rpm, 15 min) in a buffer containing 20 mM Na-HEPES and 0.1 mM EDTA (pH 7.4, buffer 2). The resulting pellet was resuspended in buffer 2 and protein concentration was measured (BCA protein Assay, Pierce). The homogenate was kept cold during the whole procedure. The membranes were kept at −80° C. until use. Assay was performed in a 384 well Optiplate (PerkinElmer) in a total volume of 40 ul. Membranes were mixed with SPA beads.

Row | Binder | IC50 [1] [nM] | Ratio hCT/hAmylin binding [2]
1 | B1 | 17.2 | 80
2 | B2 | 2.57 | 42.2
3 | B3 | 13.2 | 79.6
4 | B4 | 61.3 | 63.4
